Columns and labels:
[1] = target: T1, SARS-CoV-2 S ectodomain with D7-tag (SARS-CoV-2, UniProt P0DTC2); experiment: cell-based or functional assay
[2] = target: SARS-CoV-2 S2 subdomain protein with D7-tag (SARS-CoV-2 (NC_045512.2, Wuhan-Hu-1), UniProt P0DTC2); experiment: ELISA
[3] = target: SARS-CoV-2 NTD protein with D7-tag (SARS-CoV-2 (NC_045512.2, Wuhan-Hu-1), UniProt P0DTC2); experiment: ELISA
[4] = target: SARS-CoV-2 wild-type RBD protein (BLI) (SARS-CoV-2, UniProt P0DTC2); experiment: BLI
[5] = target: SARS-CoV RBD protein (BLI) (SARS-CoV (isolate of the bought protein …, UniProt P59594)); experiment: BLI
[6] = target: T1, SARS-CoV-2 S ectodomain with D7-tag; experiment: ELISA
[7] = target: SARS-CoV-2 RBD protein with D7-tag (SARS-CoV-2, UniProt P0DTC2); experiment: ELISA
[8] = target: SARS-CoV-2 S1 subdomain protein with D7-tag (SARS-CoV-2 (NC_045512.2, Wuhan-Hu-1), UniProt P0DTC2); experiment: ELISA

Row | Binder | neutralisation of SARS-CoV-2, IC50 [1] | binding result [2] | binding result [3] | Kd [4] | Kd [5] | binding result [6] | binding result [7] | binding result [8] | binding result [4]
1 | CYFN1006-1 (antibody, V domains shown) VH: QMQLVQSGAEVKKPGESLKISCKGSGYTFSYYWIGWVRQMPGKGLEWMGIIYPGDSDTRYSPSFQGQVTISADKSISTAYLHWSSLKASDTAMYYCARQGDLGDWILLGYWGQGTLVTVSS VL: QSALTQPRSVSGSLGQSVTISCTGISSDVGGDNYVSWYQQHPGKAPKLMIYDVSKRPSGVPDRFSGSKSGNTASLTISGLQADDEADYYCCSYALSRVVFGGGTMLTVL | < 5 ng/mL | no binding | no binding | < 0.001 nM | 32.4 nM | – | – | – | –
2 | CYFN1006-2 (antibody, V domains shown) VH: QMQLVQSGAEVKKPGESLKISCKGSGYTFSYYWIGWVRQMPGKGLEWMGIIYPGDSDTRYSPSFQGQVTISADKSISTAYLHWSSLKASDTAMYYCARQGDLGDWILLGYWGQGTLVTVSS VL: QSALTQPPSASGSPGQSVTISCTGASSDVGGYNYVSWYQQHPGKAPKLMIYEVNKRPSGVPDRFSGSKSGNTASLTISGLQADDEADYYCCSYALSRVVFGGGTMLTVL | – | no binding | no binding | – | – | binds | binds | binds | binds
